Test results published in PMC10397247.
Read-outs that look alike come from different tables or passages of the source. Each block holds one binder with its values, some of them ahead of it.

How the values were obtained:
4H454-bN = target: T1, 4H454-bN; experiment: two-hybrid library CCNG1;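 further: natural log of median RNA to DNA barcode read ratio; higher means stronger binding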
T1 chain: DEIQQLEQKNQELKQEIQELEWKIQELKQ

4H568-bN = target: T2, 4H568-bN; experiment: two-hybrid library CCNG1;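 further: natural log of median RNA to DNA barcode read ratio; higher means stronger binding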
T2 chain: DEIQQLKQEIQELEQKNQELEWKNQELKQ

4H607-bN = target: T3, 4H607-bN; experiment: two-hybrid library CCNG1;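 further: natural log of median RNA to DNA barcode read ratio; higher means stronger binding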
T3 chain: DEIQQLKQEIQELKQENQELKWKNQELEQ

4H687-bN = target: T4, 4H687-bN; experiment: two-hybrid library CCNG1;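 further: natural log of median RNA to DNA barcode read ratio; higher means stronger binding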
T4 chain: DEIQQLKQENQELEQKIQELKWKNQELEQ

4H717-bN = target: T5, 4H717-bN; experiment: two-hybrid library CCNG1
T5 chain: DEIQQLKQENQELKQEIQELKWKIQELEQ

4H72-bN = target: T6, 4H72-bN; experiment: two-hybrid library CCNG1
T6 chain: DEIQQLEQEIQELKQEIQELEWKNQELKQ

4H754-bN = target: T7, 4H754-bN; experiment: two-hybrid library CCNG1
T7 chain: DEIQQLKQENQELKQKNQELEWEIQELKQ

4H797-bN = target: T8, 4H797-bN; experiment: two-hybrid library CCNG1
T8 chain: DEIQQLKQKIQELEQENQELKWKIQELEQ

4H883-bN = target: T9, 4H883-bN; experiment: two-hybrid library CCNG1
T9 chain: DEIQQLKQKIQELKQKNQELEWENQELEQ

4H908-bN = target: T10, 4H908-bN; experiment: two-hybrid library CCNG1
T10 chain: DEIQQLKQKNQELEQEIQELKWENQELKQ

4H918-bN = target: T11, 4H918-bN; experiment: two-hybrid library CCNG1
T11 chain: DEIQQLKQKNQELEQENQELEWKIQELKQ

4H953-bN = target: T12, 4H953-bN; experiment: two-hybrid library CCNG1
T12 chain: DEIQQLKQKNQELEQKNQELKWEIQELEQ

4H967-bN = target: T13, 4H967-bN; experiment: two-hybrid library CCNG1
T13 chain: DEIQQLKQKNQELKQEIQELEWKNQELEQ

APC5009-AA = target: T14, APC5009-AA; experiment: two-hybrid library CCmax
T14 chain: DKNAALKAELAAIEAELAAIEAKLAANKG

APC542-AA = target: T15, APC542-AA; experiment: two-hybrid library CCmax; conditions: mean of both orientations
T15 chain: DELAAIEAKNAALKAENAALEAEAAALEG

APC5531-AA = target: T16, APC5531-AA; experiment: two-hybrid library CCmax; conditions: mean of both orientations
T16 chain: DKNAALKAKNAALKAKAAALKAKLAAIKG

APC6088-AA = target: T17, APC6088-AA; experiment: two-hybrid library CCmax; conditions: mean of both orientations
T17 chain: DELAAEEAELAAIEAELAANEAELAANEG

APC7524-AA = target: T18, APC7524-AA; experiment: two-hybrid library CCmax; conditions: mean of both orientations
T18 chain: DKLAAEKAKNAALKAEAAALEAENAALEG

APC8401-AA = target: T19, APC8401-AA; experiment: two-hybrid library CCmax; conditions: mean of both orientations
T19 chain: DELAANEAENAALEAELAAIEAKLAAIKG

APC8516-AA = target: T20, APC8516-AA; experiment: two-hybrid library CCmax; conditions: mean of both orientations
T20 chain: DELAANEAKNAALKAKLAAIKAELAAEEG

APC9141-AA = target: T21, APC9141-AA; experiment: two-hybrid library CCmax; conditions: mean of both orientations
T21 chain: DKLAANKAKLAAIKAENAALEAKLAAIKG

APC9182-AA = target: T22, APC9182-AA; experiment: two-hybrid library CCmax; conditions: mean of both orientations
T22 chain: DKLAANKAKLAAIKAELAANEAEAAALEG

APC9291-AA = target: T23, APC9291-AA; experiment: two-hybrid library CCmax; conditions: mean of both orientations
T23 chain: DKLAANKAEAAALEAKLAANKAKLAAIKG

APC9806-AA = target: T24, APC9806-AA; experiment: two-hybrid library CCmax; conditions: mean of both orientations
T24 chain: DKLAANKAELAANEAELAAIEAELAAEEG

4H3094-AA = target: T25, 4H3094-AA; experiment: two-hybrid library CCmax
T25 chain: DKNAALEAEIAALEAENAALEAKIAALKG

4H324-AA = target: T26, 4H324-AA; experiment: two-hybrid library CCmax; conditions: mean of both orientations
T26 chain: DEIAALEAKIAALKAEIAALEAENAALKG

4H341-AA = target: T27, 4H341-AA; experiment: two-hybrid library CCmax; conditions: mean of both orientations
T27 chain: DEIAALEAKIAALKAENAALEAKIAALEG

4H3449-AA = target: T28, 4H3449-AA; experiment: two-hybrid library CCmax; conditions: mean of both orientations
T28 chain: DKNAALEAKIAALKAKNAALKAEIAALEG

4H3619-AA = target: T29, 4H3619-AA; experiment: two-hybrid library CCmax; conditions: mean of both orientations
T29 chain: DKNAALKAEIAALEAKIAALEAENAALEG

4H3629-AA = target: T30, 4H3629-AA; experiment: two-hybrid library CCmax; conditions: mean of both orientations
T30 chain: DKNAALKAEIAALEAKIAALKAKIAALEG

4H3777-AA = target: T31, 4H3777-AA; experiment: two-hybrid library CCmax; conditions: mean of both orientations
T31 chain: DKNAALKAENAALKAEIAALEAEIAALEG

4H380-AA = target: T32, 4H380-AA; experiment: two-hybrid library CCmax; conditions: mean of both orientations
T32 chain: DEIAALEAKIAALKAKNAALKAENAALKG

4H3915-AA = target: T33, 4H3915-AA; experiment: two-hybrid library CCmax
T33 chain: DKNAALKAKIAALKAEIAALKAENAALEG

4H3974-AA = target: T34, 4H3974-AA; experiment: two-hybrid library CCmax; conditions: mean of both orientations
T34 chain: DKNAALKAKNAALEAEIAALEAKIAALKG

4H432-AA = target: T35, 4H432-AA; experiment: two-hybrid library CCmax; conditions: mean of both orientations
T35 chain: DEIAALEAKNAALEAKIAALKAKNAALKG

4H446-AA = target: T36, 4H446-AA; experiment: two-hybrid library CCmax; conditions: mean of both orientations
T36 chain: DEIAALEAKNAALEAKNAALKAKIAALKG

4H63-AA = target: T37, 4H63-AA; experiment: two-hybrid library CCmax; conditions: mean of both orientations
T37 chain: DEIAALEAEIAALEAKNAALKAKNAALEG

4H2961-AA = target: T38, 4H2961-AA; experiment: two-hybrid library CCmax; conditions: mean of both orientations
T38 chain: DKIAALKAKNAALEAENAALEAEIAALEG

4H3049-AA = target: T39, 4H3049-AA; experiment: two-hybrid library CCmax; conditions: mean of both orientations
T39 chain: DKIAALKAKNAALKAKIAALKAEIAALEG

Binder: DEIQQLEQKNQELKQEIQELEWKIQELKQ [4H454-bN]
- interaction score (4H454-bN): -0.79
- interaction score (4H568-bN): 0.196
- interaction score (4H607-bN): 0.145
- interaction score (4H687-bN): 1.02
- interaction score (4H717-bN): 0.0875
- interaction score (4H72-bN): 0.494
- interaction score (4H754-bN): -0.587
- interaction score (4H797-bN): -0.833
- interaction score (4H883-bN): -0.143
- interaction score (4H908-bN): 0.201
- interaction score (4H918-bN): -0.834
- interaction score (4H953-bN): -1.26
- interaction score (4H967-bN): -0.354

Binder: DKIAALKAKNAALEAEIAALEAENAALEG [4H2947-AA]
- interaction score (4H2961-AA): -2.03
- interaction score (4H3049-AA): -0.853
- interaction score (4H3094-AA; mean of both orientations): 1.06
- interaction score (4H324-AA): -1.49
- interaction score (4H341-AA): -1.12
- interaction score (4H3449-AA): -0.39
- interaction score (4H3619-AA): -1.85
- interaction score (4H3629-AA): -1.56
- interaction score (4H3777-AA): -1.93
- interaction score (4H380-AA): -1.17
- interaction score (4H3915-AA; mean of both orientations): -1.59
- interaction score (4H3974-AA): -1.36
- interaction score (4H432-AA): 2.09
- interaction score (4H446-AA): -0.0537
- interaction score (4H63-AA): -1.61

Other lines, results leading:

- interaction score (APC5009-AA): -1.19
- interaction score (APC542-AA): -1.44
- interaction score (APC5531-AA): -0.726
- interaction score (APC6088-AA): -1.37
- interaction score (APC7524-AA): -1.47
- interaction score (APC8401-AA): -1.26
- interaction score (APC8516-AA): -1.31
- interaction score (APC9141-AA): -1.42
- interaction score (APC9182-AA): -1.29
- interaction score (APC9291-AA): -1.51
- interaction score (APC9806-AA): -1.58
Binder: DKNAALKAELAAIEAELAAIEAKLAANKG [APC5009-AA]

- interaction score (4H3094-AA): -0.802
- interaction score (4H324-AA): -0.623
- interaction score (4H341-AA): 1.64
- interaction score (4H3449-AA): 2.52
- interaction score (4H3619-AA): -1.6
- interaction score (4H3629-AA): -0.24
- interaction score (4H3777-AA): -0.696
- interaction score (4H380-AA): 1.51
- interaction score (4H3915-AA): -0.623
- interaction score (4H3974-AA): -0.861
- interaction score (4H432-AA): 0.441
- interaction score (4H446-AA): -0.811
- interaction score (4H63-AA): -0.753
Binder: DKNAALEAEIAALEAENAALEAKIAALKG [4H3094-AA]
